B1: KRT13 (parent)
chain: TPGIDLTRVLAEMREQYEAMAERN

Variants of: B1
Assay: protein stability index of a GFP-peptide fusion (GPS, HEK-293T) (PSI 1-6); higher = more stable
Details: c terminus: a fixed tail appended
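Also: lentivirally expressed fusions sorted by FACS into six bins by GFP to DsRed ratio, PSI derived from sequencing read proportions per bin multiplied by bin number.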

Q: Which protein stability index does the source give for TPNIDLTRVLAEMREQYEAMAERN here?
A: The protein stability index was 3.12.

Q: Which protein stability index does the source give for TPGIDLTRVLMEMREQYEAMAERN here?
A: Its protein stability index is 2.79.

Q: Which protein stability index does the source give for TPDIDLTRVLAEMREQYEAMAERN here?
A: Its protein stability index is 3.1.

Q: Which protein stability index does the source give for TPGIDLTRVLAEMREQYEAMAEYN here?
A: Its protein stability index is 3.61.

Q: With TPGIDLTRVLAEMRMQYEAMAERN as the variant, how does the protein stability index read?
A: The protein stability index was 2.91.

Q: For TPGIDLTRVLAERREQYEAMAERN, which protein stability index is on record?
A: The protein stability index was 4.93.

Q: Which protein stability index does the source give for TPGIDLTRVLAEMREQYEAMAERL here?
A: The protein stability index was 4.83.

Q: For TPGIDLTRVLAEMREQYEAMAYRN, which protein stability index is on record?
A: Its protein stability index is 3.

Q: For TPGIDLTRVLAEMREQYEAMAERC, which protein stability index is on record?
A: The protein stability index was 3.08.

Q: With TPGIDRTRVLAEMREQYEAMAERN as the variant, how does the protein stability index read?
A: The protein stability index was 4.84.

Q: With TPGTDLTRVLAEMREQYEAMAERN as the variant, how does the protein stability index read?
A: Its protein stability index is 3.31.

Q: Which protein stability index does the source give for TPGIDGTRVLAEMREQYEAMAERN here?
A: The protein stability index was 4.98.

Q: With TPGIDLTRVLLEMREQYEAMAERN as the variant, how does the protein stability index read?
A: Its protein stability index is 3.51.

Q: For TPGIDLTRVLAEMREQYEAQAERN, which protein stability index is on record?
A: Its protein stability index is 4.13.

Q: With TPGIDLTRKLAEMREQYEAMAERN as the variant, how does the protein stability index read?
A: The protein stability index was 4.34.

Q: For TPGIDLTRVLAEDREQYEAMAERN, which protein stability index is on record?
A: Its protein stability index is 5.36.

Q: Which protein stability index does the source give for TKGIDLTRVLAEMREQYEAMAERN here?
A: Its protein stability index is 3.79.

Q: Which protein stability index does the source give for TPGIDLTRVLAEMRRQYEAMAERN here?
A: Its protein stability index is 3.11.

Q: With TPGIDLTRVQAEMREQYEAMAERN as the variant, how does the protein stability index read?
A: The protein stability index was 5.15.

Q: With PPGIDLTRVLAEMREQYEAMAERN as the variant, how does the protein stability index read?
A: Its protein stability index is 4.16.

Q: Which protein stability index does the source give for FPGIDLTRVLAEMREQYEAMAERN here?
A: The protein stability index was 3.27.

Q: For TPGIDLTRVLAEMREQYEAMAERI, which protein stability index is on record?
A: Its protein stability index is 4.63.

Q: For TPGIDLTRVLDEMREQYEAMAERN, which protein stability index is on record?
A: Its protein stability index is 4.01.

Q: For TPGIHLTRVLAEMREQYEAMAERN, which protein stability index is on record?
A: Its protein stability index is 4.29.

Q: For TPGIDLTRVLAEMREQYEAMAERF, which protein stability index is on record?
A: Its protein stability index is 4.

Q: For TPGIDLTRVLAEMREQYEAMAERA, which protein stability index is on record?
A: The protein stability index was 3.56.

Q: Which protein stability index does the source give for TPGIDLTRVLAEMREQYEAMAEIN here?
A: Its protein stability index is 2.94.

Q: For TPGIDCTRVLAEMREQYEAMAERN, which protein stability index is on record?
A: The protein stability index was 4.79.

Q: For TPGIDLIRVLAEMREQYEAMAERN, which protein stability index is on record?
A: The protein stability index was 2.26.

Q: With TPGIDLTRVLAEMRGQYEAMAERN as the variant, how does the protein stability index read?
A: The protein stability index was 3.82.

Q: For TPGIDLTRVLAEMRHQYEAMAERN, which protein stability index is on record?
A: Its protein stability index is 3.45.

Q: For TPPIDLTRVLAEMREQYEAMAERN, which protein stability index is on record?
A: The protein stability index was 2.67.

Q: With TPTIDLTRVLAEMREQYEAMAERN as the variant, how does the protein stability index read?
A: Its protein stability index is 2.96.

Q: Which protein stability index does the source give for TPGIDLKRVLAEMREQYEAMAERN here?
A: Its protein stability index is 2.88.

Q: With TPGIDLTRVLAEMREQYEAMAERG as the variant, how does the protein stability index read?
A: Its protein stability index is 4.87.

Q: With TPGIDLTRVLAEMREQYWAMAERN as the variant, how does the protein stability index read?
A: Its protein stability index is 3.62.

Q: For TPGIDLTRVLAEMLEQYEAMAERN, which protein stability index is on record?
A: The protein stability index was 2.42.

Q: With TPGIMLTRVLAEMREQYEAMAERN as the variant, how does the protein stability index read?
A: Its protein stability index is 3.81.

Q: Which protein stability index does the source give for TPGIDLTRVLAEHREQYEAMAERN here?
A: Its protein stability index is 4.74.

Q: Which protein stability index does the source give for TPGIDLTRVLAEMREQREAMAERN here?
A: Its protein stability index is 4.75.

Q: For TPGIDLTRVLAEMREKYEAMAERN, which protein stability index is on record?
A: Its protein stability index is 4.78.

Q: Which protein stability index does the source give for TPGIDLTRVLAEMREQVEAMAERN here?
A: Its protein stability index is 4.29.

Q: Which protein stability index does the source give for TPGIDYTRVLAEMREQYEAMAERN here?
A: Its protein stability index is 3.37.

Q: Which protein stability index does the source give for KPGIDLTRVLAEMREQYEAMAERN here?
A: The protein stability index was 3.85.

Q: With TPGIDLLRVLAEMREQYEAMAERN as the variant, how does the protein stability index read?
A: Its protein stability index is 2.17.

Q: With TPGIDLTRVLAEMREQYEAMAECN as the variant, how does the protein stability index read?
A: The protein stability index was 4.43.

Q: For TPGIDLTRVLAEMREQYEAMAEQN, which protein stability index is on record?
A: Its protein stability index is 4.39.

Q: With TPGIDLTRVEAEMREQYEAMAERN as the variant, how does the protein stability index read?
A: The protein stability index was 5.2.

Q: Which protein stability index does the source give for TPGIDLTRVIAEMREQYEAMAERN here?
A: The protein stability index was 3.25.

Q: With WPGIDLTRVLAEMREQYEAMAERN as the variant, how does the protein stability index read?
A: The protein stability index was 3.5.

Q: For TPGIDLTRDLAEMREQYEAMAERN, which protein stability index is on record?
A: The protein stability index was 4.54.

Q: With TPGIDLTRVLAEMREQYEAMKERN as the variant, how does the protein stability index read?
A: The protein stability index was 3.94.

Q: Which protein stability index does the source give for TPGIDLTRVLAEMPEQYEAMAERN here?
A: The protein stability index was 4.42.

Q: For TPGIDLTRVLAEMRQQYEAMAERN, which protein stability index is on record?
A: Its protein stability index is 3.28.

Q: With TPGIDLTRVLAEMREQYEAMYERN as the variant, how does the protein stability index read?
A: The protein stability index was 4.5.

Q: With TPGIDNTRVLAEMREQYEAMAERN as the variant, how does the protein stability index read?
A: Its protein stability index is 5.14.

Q: For TPGIDLTRVLAEMRAQYEAMAERN, which protein stability index is on record?
A: The protein stability index was 3.47.

Q: With TPGIDVTRVLAEMREQYEAMAERN as the variant, how does the protein stability index read?
A: Its protein stability index is 3.88.

Q: With TPGIDLTRLLAEMREQYEAMAERN as the variant, how does the protein stability index read?
A: The protein stability index was 2.25.

Q: With TPGIDLTRVLAEMREQYEAIAERN as the variant, how does the protein stability index read?
A: Its protein stability index is 3.88.

Q: Which protein stability index does the source give for TPGIDLTRVLAEMRETYEAMAERN here?
A: Its protein stability index is 3.39.

Q: Which protein stability index does the source give for TFGIDLTRVLAEMREQYEAMAERN here?
A: Its protein stability index is 2.79.

Q: Which protein stability index does the source give for TPGIDQTRVLAEMREQYEAMAERN here?
A: Its protein stability index is 5.01.

Q: Which protein stability index does the source give for TPGIDLTRVLAEMREQMEAMAERN here?
A: Its protein stability index is 4.3.

Q: With TPGIGLTRVLAEMREQYEAMAERN as the variant, how does the protein stability index read?
A: The protein stability index was 1.58.

Q: Which protein stability index does the source give for QPGIDLTRVLAEMREQYEAMAERN here?
A: Its protein stability index is 3.13.

Q: For TPGIDLTRVLAEMREEYEAMAERN, which protein stability index is on record?
A: Its protein stability index is 3.97.

Q: For TPGIDLTRVLAEMREQYEAMAERD, which protein stability index is on record?
A: Its protein stability index is 5.03.

Q: Which protein stability index does the source give for TPGIDLTRVLAESREQYEAMAERN here?
A: Its protein stability index is 4.7.

Q: For TPGIDLTRVLAEMREQYEAMAEFN, which protein stability index is on record?
A: The protein stability index was 3.78.

Q: With TPGIDLTRVLAEMREQYEANAERN as the variant, how does the protein stability index read?
A: The protein stability index was 3.18.

Q: With TPMIDLTRVLAEMREQYEAMAERN as the variant, how does the protein stability index read?
A: Its protein stability index is 2.38.

Q: Which protein stability index does the source give for TPGIDLTRVLAEMREQYEAMIERN here?
A: The protein stability index was 4.27.

Q: Which protein stability index does the source give for TPGIDLTRVMAEMREQYEAMAERN here?
A: Its protein stability index is 4.48.

Q: With TPGIDLTRVLAEMREQYEVMAERN as the variant, how does the protein stability index read?
A: The protein stability index was 3.23.

Q: Which protein stability index does the source give for TPFIDLTRVLAEMREQYEAMAERN here?
A: Its protein stability index is 2.28.

Q: Which protein stability index does the source give for TPGIDLTWVLAEMREQYEAMAERN here?
A: Its protein stability index is 3.25.

Q: With TPGIDLTRVLAEMREQYEAVAERN as the variant, how does the protein stability index read?
A: Its protein stability index is 3.09.

Q: With TPGIDLTNVLAEMREQYEAMAERN as the variant, how does the protein stability index read?
A: Its protein stability index is 4.11.

Q: With TPGIDLTRVLAEMREQYEAMAERP as the variant, how does the protein stability index read?
A: The protein stability index was 4.07.

Q: Which protein stability index does the source give for SPGIDLTRVLAEMREQYEAMAERN here?
A: The protein stability index was 3.49.

Q: For TPGIDLTRVLIEMREQYEAMAERN, which protein stability index is on record?
A: Its protein stability index is 3.51.

Q: With TPGIDLTRVLAEIREQYEAMAERN as the variant, how does the protein stability index read?
A: Its protein stability index is 3.71.

Q: For TPGIDLTRVLAEMREQYEAMAELN, which protein stability index is on record?
A: The protein stability index was 3.34.

Q: Which protein stability index does the source give for TPGIDLTRVLAEMREQYEAMGERN here?
A: Its protein stability index is 2.79.

Q: For TPGIDLTRVLAEMREQYEAWAERN, which protein stability index is on record?
A: The protein stability index was 5.32.

Q: For TPGIDLTRVLAEMSEQYEAMAERN, which protein stability index is on record?
A: The protein stability index was 3.74.

Q: Which protein stability index does the source give for TPGIDLTRVLAEMREQYVAMAERN here?
A: Its protein stability index is 4.39.

Q: With TPGIDLTRTLAEMREQYEAMAERN as the variant, how does the protein stability index read?
A: Its protein stability index is 3.85.

Q: For TPGIDLTRVLAEMREIYEAMAERN, which protein stability index is on record?
A: The protein stability index was 3.38.

Q: Which protein stability index does the source give for TPGIDLTRVLAEMREQYERMAERN here?
A: Its protein stability index is 3.57.

Q: Which protein stability index does the source give for TPGIDLTRVLAEMREQYEDMAERN here?
A: Its protein stability index is 4.08.

Q: For TPGIDLTRVNAEMREQYEAMAERN, which protein stability index is on record?
A: Its protein stability index is 5.71.

Q: With TPGIDLTKVLAEMREQYEAMAERN as the variant, how does the protein stability index read?
A: Its protein stability index is 4.69.

Reference: the supplement of paper PMC10567573
